Experimental data from the nanobody polyreactivity screen of Harvey et al. (2022).

Test: yeast display, Sf9 membrane polyspecificity reagent, FACS + sequencing; frameworks hold sequencing errors
Procedure, shortened: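 After 36–48 hours of galactose induction, yeast (Saccharomyces cerevisiae BJ5465) displaying a synthetic nanobody library were stained at 4 °C for 1 hour with 10% biotinylated, detergent-solubilized Sf9 membrane reagent. Streptavidin microbeads enriched the stained cells before FACS sorting into low and high (top ~1%) gates on anti-HA and streptavidin fluorescence. Each clone's polyreactivity label reflects its gate of origin.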

| Sequence | polyreactivity (PSR sort gate) |
| --- | --- |
| QVQLVESGGGLVQAGGSLRLRCAASGSTFWGYAMGWYRQAPGKERELVASITWRGGSTYADSVKGRFTISRDNAKNTVYLQMNSLKPEDTAVYYCNALPYRYRRYDYWGQGTQVTVSS | low polyreactivity |
| QVQLVESGGGLVQAGGSLRLRCAASGSTLYGNAMGWYRQAPGKERDLVAVISRGGTTSYADSVKGRFTISRDNAKNTVYLQMKSLKPEDTAVYYCAVDVASLSTWPPAGRLVDYWGQGTQVTVSS | low polyreactivity |
| QVQLVESGGGLVQAGGSLRLRCAASGYTLGPYAMGWYRPAPGKQRELVAAISWGGGRTYYADSVKGRFTISRDNAKNTVYLLMNSLKPEDTAVYYCAAKWSLVRDGPKYDYWGQGTQVTVSS | low polyreactivity |
| QVQLVESGGGLVQAGGSLRLRCADSGSIFHCNAMGWNRQAPGKERELVAGITTSGGTTYYADTVKGRFTISRDNAKNTVYVQMKSLKPEATAVYYCAARIIRWRPRWPSYGKYDYWGQVTQVTVSS | low polyreactivity |
| QVQLVESGGGLVQAGGSLRLRCASSGITFRGYAMGWYRQAPGKERELVASITNTDSTYYADSVKGRFTISRDNAKNTVYLQMNSLKPEDTAVYYCAARRGRKYGYWGQGTQVTVSS | high polyreactivity |
| QVQLVESGGGLVQAGGSLRLRCDASGLIFYDNMGWYRQAPGKERELVAAISSSGGSTSYADSVKGRFTISRDNAKNTVYLQMNSLKPEDTAVYYCAADSYPAYLGFVGFDYWGQGTQVTVSS | low polyreactivity |
| QVQLVESGGGLVQAGGSLRLRCDASGRIFISYTMGWSRPPPGKERELVAGIDSSGTSTYYADSVKGRFTISRDNAKNTVYLLMNSLKPEDNADYYCNVDGYWKDTSTEMVYWGQGTQVTVSS | low polyreactivity |
| QVQLVESGGGLVQAGGSLRLRGAASGRTFPGYAMGWCRPAPGNERELVATICSADSTNYADSVMGRFTSSRDNAKNTVKLHMKSLKPEDTAVYFCAQRYGRNGAAAQYNVWYRYDYWGQGTQVTVSS | low polyreactivity |
| QVQLVESGGGLVQAGGSLRLSAASGSTLAGNTMGWYRQAPGKERELVAAINDSGGSTYYADSVKGRFTISRDNAKNTVYLQMNSLKPEDTAVYYCNAEGSAYIEDGYDYWGQGTQVTVSS | low polyreactivity |
| QVQLVESGGGLVQAGGSLRLSCAAAGFIFWSNAMGWYRQAPGKERELVAAIRNTGSTNYADSVKGRFTISRDNAKNTVYLQMNSLKPEDTAVYYCATKPYPYYLYYYWGQGTQVTVSS | high polyreactivity |
| QVQLVESGGGLVQAGGSLRLSCAAAGNIFSPYAMGWYIQAPGKERELVAAISYSGGSTYYADSVKGRFTISRDIAKNTFYLQMNSLKPEDTAVYYCAVVYSYYLAVLGYWDYDYWGQGTQVTVSS | low polyreactivity |
| QVQLVESGGGLVQAGGSLRLSCAAAGRISVFYTMGWYRQAPGKERVLVAVIRTSGGRTNYADSVKGRFTISRDNAKNTVYLQMNSLKPEDTAVYYWDADAVIEWTEWYSAWWYYYWGQGTQVTVSS | low polyreactivity |
| QVQLVESGGGLVQAGGSLRLSCAAAGRLFGPYAMGWYGQAPGKERELVASISYSGGSTYYADSVKGRFTISRDNAKNTVYLQMNSLKAEDTAVYYCAKGGYWRGYNYWGQGTQVTVSS | low polyreactivity |
| QVQLVESGGGLVQAGGSLRLSCAAAGRTFGDYDMGWYRQAPGKERELVAAITSDGTTYYADSVKGRFTISRDNAKNTVYLQMNSLKPEDTAVYYCAADYWYVSWYDYWGQGTQVTVSS | low polyreactivity |
| QVQLVESGGGLVQAGGSLRLSCAAAGSIFRGYAMGWYRQEPEKERELVADISRRGGSTYYADSVKGRFTISRDNAKNTVYLQMNSLKPEDTAVYYCAKDGTGAGTYDYWGQGTQVTVSS | low polyreactivity |
| QVQLVESGGGLVQAGGSLRLSCAAAGSTFSSYAMVWYRQAPGKERELVAAISTSGGRTYYADSVKGRFTISRDNAKNAVFLQMNSLKPEDTAVYYCAKKGICYVRYYYWGQGTLVTVSS | high polyreactivity |
| QVQLVESGGGLVQAGGSLRLSCAACGFIFHFYAMGWYRQAPGKERELVASISAIGGSTYYADSVKGRFTISRDNAKNTVYLQMNSLKPEDTAVYYCATYSYRHRRYSRYDYWGQGTQVTVSS | high polyreactivity |
| QVQLVESGGGLVQAGGSLRLSCAACGFTFAYYAMGWYRQAPGKERELVATITSGGRTYYADSVKGRFTISRDNAKNTVYFQMNSLKPEDTAVYYCAGAGKGRYHFRSTMDYWGQGTQVTVSS | high polyreactivity |
| QVQLVESGGGLVQAGGSLRLSCAACGFTFYYYAMGWYRQAPGKERELVASISASGGITYYADSVKGRFTISRDNAKNTVYLQMNSLKPEDTAVYYCATRQGYRLYYWGQGTQVNVSS | high polyreactivity |
| QVQLVESGGGLVQAGGSLRLSCAACGFTIRRYAKGWYRQAPGKERELVAAITTGGSTYYADSVKGRFTISRDNAKNTVYFQMNSLKPEETAVYDCAALYPYKQYRLGYDSWGQGTQVTVSS | high polyreactivity |
| QVQLVESGGGLVQAGGSLRLSCAACGIIFVYYAMGWYRQAPGKERELVAAISSSGARTYYADSVKGRFTISRDNAKNTVYLQMNSLKPEDTAVYYCAARETRTKPIFYGYNYWGQGTQVTVSS | high polyreactivity |
| QVQLVESGGGLVQAGGSLRLSCAACGLTYNANAMGWYRQAPGKERELVAAIDWIGGSTYYADSVKGRFTISRDNAKNTVYLQMNSLKPEDTAVYYCASRSKRRNYDYWGQGTQVTVSS | high polyreactivity |
